From patent US6084068, “Elongin A and C functional domains” (Oklahoma Medical Research Foundation, dated 2000) come the findings set out here.

In the experiment the target is T1, Elongin BC complex (wild type rat Elongin B and C) (rat, UniProt P62870).
T1 chain 1: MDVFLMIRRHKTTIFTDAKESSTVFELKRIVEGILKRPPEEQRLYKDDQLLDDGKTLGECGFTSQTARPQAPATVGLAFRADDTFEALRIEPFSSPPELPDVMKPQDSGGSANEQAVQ
T1 chain 2: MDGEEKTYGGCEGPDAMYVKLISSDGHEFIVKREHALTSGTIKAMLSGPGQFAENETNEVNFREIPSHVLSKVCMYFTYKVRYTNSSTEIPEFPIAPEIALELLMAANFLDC
Nature of the experiment: refolded with wild type Elongin B and C; TSK SP-NPR HPLC, SDS-PAGE, silver staining.

B1: Elongin A internal deletion mutant Δ546-565 (other)
chain: MAAESALQVVEKLQARLAANPDPKKLLKYLKKLSVLPITVDILVETGVGKTVNSFRKHEQVGNFARDLVAQWKKLVPVERNNEAEDQDFEKSNSRKRPRDVPQQEEEAEGNYQESWQASGSQPYSPEHRQKKHRKLPELERPHKVAHGHERRDERKRCHKVSPPYSSDPESSDYGHVQSPPPSSPHQMYTDLSRSPEMDQEPIVSHPKPGKVHSNTFQDRLGVSHLGEHQGKGAVSQNKPHKSSHKEKRPVDARGDEKSSVMGREKSHKASSKEESRRLLSEDSAKEKLPSSVVKKEKDREGNSLKKKLSPALDVASDNHFKKPKHKDSEKIKSDKNKQSVDSVDSGRGTGDPLPRAKDKVPNNLKAQEGKVRTNSDRKSPGSLPKVEEMDMDDEFEQPTMSFESYLSYDQPRKKKKKVVKTSGTALGEKGLKKKDSKSTSKNLNSAQKLPKANENKSDKLQPAGAEPTRPRKVPTDVLPALPDIPLPAIQTNYRPLPSLELISSFQPKRKAFSSPQEEEEAGFTGRRMNSKMQVYSGSKCAYLPFEVGGVPYSVLEPVLERCTPDQLYRIEECNHVLIEETDQLWKVHCHRDFKEERPEEYESWREMYLRLQDAREQRLRLLTNNIRSAHANKPKGRQAKMAFVNSVAKPPRDVRRRQEKFGTGGAAVPEKVRIKPAPYTTGSSHVPASNSSSSFHSSPEELAYEGPSTSSAHLAPVASSSVSYDPRKPAVKKIAPMMAKTIKAFKNRFSRR
Take B1: the binding result is listed as “no binding”.

B2: Elongin A internal deletion mutant Δ401-440 (other)
chain: MAAESALQVVEKLQARLAANPDPKKLLKYLKKLSVLPITVDILVETGVGKTVNSFRKHEQVGNFARDLVAQWKKLVPVERNNEAEDQDFEKSNSRKRPRDVPQQEEEAEGNYQESWQASGSQPYSPEHRQKKHRKLPELERPHKVAHGHERRDERKRCHKVSPPYSSDPESSDYGHVQSPPPSSPHQMYTDLSRSPEMDQEPIVSHPKPGKVHSNTFQDRLGVSHLGEHQGKGAVSQNKPHKSSHKEKRPVDARGDEKSSVMGREKSHKASSKEESRRLLSEDSAKEKLPSSVVKKEKDREGNSLKKKLSPALDVASDNHFKKPKHKDSEKIKSDKNKQSVDSVDSGRGTGDPLPRAKDKVPNNLKAQEGKVRTNSDRKSPGSLPKVEEMDMDDEFEQPTSKNLNSAQKLPKANENKSDKLQPAGAEPTRPRKVPTDVLPALPDIPLPAIQTNYRPLPSLELISSFQPKRKAFSSPQEEEEAGFTGRRMNSKMQVYSGSKCAYLPKMMTLHQQCIRVLKNNIDSIFEVGGVPYSVLEPVLERCTPDQLYRIEECNHVLIEETDQLWKVHCHRDFKEERPEEYESWREMYLRLQDAREQRLRLLTNNIRSAHANKPKGRQAKMAFVNSVAKPPRDVRRRQEKFGTGGAAVPEKVRIKPAPYTTGSSHVPASNSSSSFHSSPEELAYEGPSTSSAHLAPVASSSVSYDPRKPAVKKIAPMMAKTIKAFKNRFSRR
Consider B2, for which the binding result was “binds”.

B3: Elongin A internal deletion mutant Δ481-520 (other)
chain: MAAESALQVVEKLQARLAANPDPKKLLKYLKKLSVLPITVDILVETGVGKTVNSFRKHEQVGNFARDLVAQWKKLVPVERNNEAEDQDFEKSNSRKRPRDVPQQEEEAEGNYQESWQASGSQPYSPEHRQKKHRKLPELERPHKVAHGHERRDERKRCHKVSPPYSSDPESSDYGHVQSPPPSSPHQMYTDLSRSPEMDQEPIVSHPKPGKVHSNTFQDRLGVSHLGEHQGKGAVSQNKPHKSSHKEKRPVDARGDEKSSVMGREKSHKASSKEESRRLLSEDSAKEKLPSSVVKKEKDREGNSLKKKLSPALDVASDNHFKKPKHKDSEKIKSDKNKQSVDSVDSGRGTGDPLPRAKDKVPNNLKAQEGKVRTNSDRKSPGSLPKVEEMDMDDEFEQPTMSFESYLSYDQPRKKKKKVVKTSGTALGEKGLKKKDSKSTSKNLNSAQKLPKANENKSDKLQPAGAEPTRPRKVPTDVLPEAGFTGRRMNSKMQVYSGSKCAYLPKMMTLHQQCIRVLKNNIDSIFEVGGVPYSVLEPVLERCTPDQLYRIEECNHVLIEETDQLWKVHCHRDFKEERPEEYESWREMYLRLQDAREQRLRLLTNNIRSAHANKPKGRQAKMAFVNSVAKPPRDVRRRQEKFGTGGAAVPEKVRIKPAPYTTGSSHVPASNSSSSFHSSPEELAYEGPSTSSAHLAPVASSSVSYDPRKPAVKKIAPMMAKTIKAFKNRFSRR
Consider B3, for which the binding result was “binds”.

B4: Elongin A internal deletion mutant Δ521-545 (other)
chain: MAAESALQVVEKLQARLAANPDPKKLLKYLKKLSVLPITVDILVETGVGKTVNSFRKHEQVGNFARDLVAQWKKLVPVERNNEAEDQDFEKSNSRKRPRDVPQQEEEAEGNYQESWQASGSQPYSPEHRQKKHRKLPELERPHKVAHGHERRDERKRCHKVSPPYSSDPESSDYGHVQSPPPSSPHQMYTDLSRSPEMDQEPIVSHPKPGKVHSNTFQDRLGVSHLGEHQGKGAVSQNKPHKSSHKEKRPVDARGDEKSSVMGREKSHKASSKEESRRLLSEDSAKEKLPSSVVKKEKDREGNSLKKKLSPALDVASDNHFKKPKHKDSEKIKSDKNKQSVDSVDSGRGTGDPLPRAKDKVPNNLKAQEGKVRTNSDRKSPGSLPKVEEMDMDDEFEQPTMSFESYLSYDQPRKKKKKVVKTSGTALGEKGLKKKDSKSTSKNLNSAQKLPKANENKSDKLQPAGAEPTRPRKVPTDVLPALPDIPLPAIQTNYRPLPSLELISSFQPKRKAFSSPQEEEKMMTLHQQCIRVLKNNIDSIFEVGGVPYSVLEPVLERCTPDQLYRIEECNHVLIEETDQLWKVHCHRDFKEERPEEYESWREMYLRLQDAREQRLRLLTNNIRSAHANKPKGRQAKMAFVNSVAKPPRDVRRRQEKFGTGGAAVPEKVRIKPAPYTTGSSHVPASNSSSSFHSSPEELAYEGPSTSSAHLAPVASSSVSYDPRKPAVKKIAPMMAKTIKAFKNRFSRR
In the case of B4, the binding result is on record as “binds”.

B5: Elongin A point mutant L550S (other)
chain: MAAESALQVVEKLQARLAANPDPKKLLKYLKKLSVLPITVDILVETGVGKTVNSFRKHEQVGNFARDLVAQWKKLVPVERNNEAEDQDFEKSNSRKRPRDVPQQEEEAEGNYQESWQASGSQPYSPEHRQKKHRKLPELERPHKVAHGHERRDERKRCHKVSPPYSSDPESSDYGHVQSPPPSSPHQMYTDLSRSPEMDQEPIVSHPKPGKVHSNTFQDRLGVSHLGEHQGKGAVSQNKPHKSSHKEKRPVDARGDEKSSVMGREKSHKASSKEESRRLLSEDSAKEKLPSSVVKKEKDREGNSLKKKLSPALDVASDNHFKKPKHKDSEKIKSDKNKQSVDSVDSGRGTGDPLPRAKDKVPNNLKAQEGKVRTNSDRKSPGSLPKVEEMDMDDEFEQPTMSFESYLSYDQPRKKKKKVVKTSGTALGEKGLKKKDSKSTSKNLNSAQKLPKANENKSDKLQPAGAEPTRPRKVPTDVLPALPDIPLPAIQTNYRPLPSLELISSFQPKRKAFSSPQEEEEAGFTGRRMNSKMQVYSGSKCAYLPKMMTSHQQCIRVLKNNIDSIFEVGGVPYSVLEPVLERCTPDQLYRIEECNHVLIEETDQLWKVHCHRDFKEERPEEYESWREMYLRLQDAREQRLRLLTNNIRSAHANKPKGRQAKMAFVNSVAKPPRDVRRRQEKFGTGGAAVPEKVRIKPAPYTTGSSHVPASNSSSSFHSSPEELAYEGPSTSSAHLAPVASSSVSYDPRKPAVKKIAPMMAKTIKAFKNRFSRR
Take B5: the binding result is reported as “no binding”.

B6: Elongin A internal deletion mutant Δ441-480 (other)
chain: MAAESALQVVEKLQARLAANPDPKKLLKYLKKLSVLPITVDILVETGVGKTVNSFRKHEQVGNFARDLVAQWKKLVPVERNNEAEDQDFEKSNSRKRPRDVPQQEEEAEGNYQESWQASGSQPYSPEHRQKKHRKLPELERPHKVAHGHERRDERKRCHKVSPPYSSDPESSDYGHVQSPPPSSPHQMYTDLSRSPEMDQEPIVSHPKPGKVHSNTFQDRLGVSHLGEHQGKGAVSQNKPHKSSHKEKRPVDARGDEKSSVMGREKSHKASSKEESRRLLSEDSAKEKLPSSVVKKEKDREGNSLKKKLSPALDVASDNHFKKPKHKDSEKIKSDKNKQSVDSVDSGRGTGDPLPRAKDKVPNNLKAQEGKVRTNSDRKSPGSLPKVEEMDMDDEFEQPTMSFESYLSYDQPRKKKKKVVKTSGTALGEKGLKKKDSKSTALPDIPLPAIQTNYRPLPSLELISSFQPKRKAFSSPQEEEEAGFTGRRMNSKMQVYSGSKCAYLPKMMTLHQQCIRVLKNNIDSIFEVGGVPYSVLEPVLERCTPDQLYRIEECNHVLIEETDQLWKVHCHRDFKEERPEEYESWREMYLRLQDAREQRLRLLTNNIRSAHANKPKGRQAKMAFVNSVAKPPRDVRRRQEKFGTGGAAVPEKVRIKPAPYTTGSSHVPASNSSSSFHSSPEELAYEGPSTSSAHLAPVASSSVSYDPRKPAVKKIAPMMAKTIKAFKNRFSRR
In the case of B6, the binding result is “binds”.

B7: Elongin A deletion mutant 1-630 (other)
chain: MAAESALQVVEKLQARLAANPDPKKLLKYLKKLSVLPITVDILVETGVGKTVNSFRKHEQVGNFARDLVAQWKKLVPVERNNEAEDQDFEKSNSRKRPRDVPQQEEEAEGNYQESWQASGSQPYSPEHRQKKHRKLPELERPHKVAHGHERRDERKRCHKVSPPYSSDPESSDYGHVQSPPPSSPHQMYTDLSRSPEMDQEPIVSHPKPGKVHSNTFQDRLGVSHLGEHQGKGAVSQNKPHKSSHKEKRPVDARGDEKSSVMGREKSHKASSKEESRRLLSEDSAKEKLPSSVVKKEKDREGNSLKKKLSPALDVASDNHFKKPKHKDSEKIKSDKNKQSVDSVDSGRGTGDPLPRAKDKVPNNLKAQEGKVRTNSDRKSPGSLPKVEEMDMDDEFEQPTMSFESYLSYDQPRKKKKKVVKTSGTALGEKGLKKKDSKSTSKNLNSAQKLPKANENKSDKLQPAGAEPTRPRKVPTDVLPALPDIPLPAIQTNYRPLPSLELISSFQPKRKAFSSPQEEEEAGFTGRRMNSKMQVYSGSKCAYLPKMMTLHQQCIRVLKNNIDSIFEVGGVPYSVLEPVLERCTPDQLYRIEECNHVLIEETDQLWKVHCHRDFKEERPEEYESWREMYL
As for B7, the binding result is “binds”.

B8: Elongin A deletion mutant A(1-535) (other)
chain: MAAESALQVVEKLQARLAANPDPKKLLKYLKKLSVLPITVDILVETGVGKTVNSFRKHEQVGNFARDLVAQWKKLVPVERNNEAEDQDFEKSNSRKRPRDVPQQEEEAEGNYQESWQASGSQPYSPEHRQKKHRKLPELERPHKVAHGHERRDERKRCHKVSPPYSSDPESSDYGHVQSPPPSSPHQMYTDLSRSPEMDQEPIVSHPKPGKVHSNTFQDRLGVSHLGEHQGKGAVSQNKPHKSSHKEKRPVDARGDEKSSVMGREKSHKASSKEESRRLLSEDSAKEKLPSSVVKKEKDREGNSLKKKLSPALDVASDNHFKKPKHKDSEKIKSDKNKQSVDSVDSGRGTGDPLPRAKDKVPNNLKAQEGKVRTNSDRKSPGSLPKVEEMDMDDEFEQPTMSFESYLSYDQPRKKKKKVVKTSGTALGEKGLKKKDSKSTSKNLNSAQKLPKANENKSDKLQPAGAEPTRPRKVPTDVLPALPDIPLPAIQTNYRPLPSLELISSFQPKRKAFSSPQEEEEAGFTGRRMNSKMQV
With B8, the binding result is given as “no binding”.
